Laboratory results from patent US20200262877A1, “ION CHANNEL-BINDING PEPTIDES AND METHODS OF USE THEREOF” (priority 2017, published 2020).

Legend:
GABA = assay: Ion channel panel (IonWorks Barracuda): GABA; format: cell-based; details: 100% = no change, <100% = inhibition
In short: (§1)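 Transfected HEK293 or CHO cells were exposed for at least 5 min to peptides at 200 nM and 20 μM final, tested in duplicate, in HEPES-buffered physiological saline. Activation was taken as peptide-plus-agonist current over control current ×100, and inhibition as 1 minus that ratio ×100. Each channel's control was its own reference compound.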

α4β2 = target: T1, α4β2 (Homo sapiens, UniProt P17787+P43681); assay: Ion channel panel (IonWorks Barracuda): α4β2; format: cell-based; details: 100% = no change, <100% = inhibition
T1 construct: host or cells: HEK293 or CHO
In short: as §1

NR2B = target: T2, NR2B (Homo sapiens, UniProt Q13224); assay: Ion channel panel (IonWorks Barracuda): NR2B; format: cell-based; details: 100% = no change, <100% = inhibition
T2 construct: host or cells: HEK293 or CHO
In short: as §1

Nav1.7 = target: T3, Nav1.7 (Homo sapiens, UniProt Q15858); assay: cell-based; format: cell-based; details: 100% = no change; for Activity of Nav1.7 with peptide, expressed as a percentage of the reference compound: peptide at 0.2 μM; for Activity of Nav1.7 with peptide (percentage of the reference compound): peptide at 20 μM
T3 construct: host or cells: HEK293 or CHO
T3 sequence (Q15858 whole entry): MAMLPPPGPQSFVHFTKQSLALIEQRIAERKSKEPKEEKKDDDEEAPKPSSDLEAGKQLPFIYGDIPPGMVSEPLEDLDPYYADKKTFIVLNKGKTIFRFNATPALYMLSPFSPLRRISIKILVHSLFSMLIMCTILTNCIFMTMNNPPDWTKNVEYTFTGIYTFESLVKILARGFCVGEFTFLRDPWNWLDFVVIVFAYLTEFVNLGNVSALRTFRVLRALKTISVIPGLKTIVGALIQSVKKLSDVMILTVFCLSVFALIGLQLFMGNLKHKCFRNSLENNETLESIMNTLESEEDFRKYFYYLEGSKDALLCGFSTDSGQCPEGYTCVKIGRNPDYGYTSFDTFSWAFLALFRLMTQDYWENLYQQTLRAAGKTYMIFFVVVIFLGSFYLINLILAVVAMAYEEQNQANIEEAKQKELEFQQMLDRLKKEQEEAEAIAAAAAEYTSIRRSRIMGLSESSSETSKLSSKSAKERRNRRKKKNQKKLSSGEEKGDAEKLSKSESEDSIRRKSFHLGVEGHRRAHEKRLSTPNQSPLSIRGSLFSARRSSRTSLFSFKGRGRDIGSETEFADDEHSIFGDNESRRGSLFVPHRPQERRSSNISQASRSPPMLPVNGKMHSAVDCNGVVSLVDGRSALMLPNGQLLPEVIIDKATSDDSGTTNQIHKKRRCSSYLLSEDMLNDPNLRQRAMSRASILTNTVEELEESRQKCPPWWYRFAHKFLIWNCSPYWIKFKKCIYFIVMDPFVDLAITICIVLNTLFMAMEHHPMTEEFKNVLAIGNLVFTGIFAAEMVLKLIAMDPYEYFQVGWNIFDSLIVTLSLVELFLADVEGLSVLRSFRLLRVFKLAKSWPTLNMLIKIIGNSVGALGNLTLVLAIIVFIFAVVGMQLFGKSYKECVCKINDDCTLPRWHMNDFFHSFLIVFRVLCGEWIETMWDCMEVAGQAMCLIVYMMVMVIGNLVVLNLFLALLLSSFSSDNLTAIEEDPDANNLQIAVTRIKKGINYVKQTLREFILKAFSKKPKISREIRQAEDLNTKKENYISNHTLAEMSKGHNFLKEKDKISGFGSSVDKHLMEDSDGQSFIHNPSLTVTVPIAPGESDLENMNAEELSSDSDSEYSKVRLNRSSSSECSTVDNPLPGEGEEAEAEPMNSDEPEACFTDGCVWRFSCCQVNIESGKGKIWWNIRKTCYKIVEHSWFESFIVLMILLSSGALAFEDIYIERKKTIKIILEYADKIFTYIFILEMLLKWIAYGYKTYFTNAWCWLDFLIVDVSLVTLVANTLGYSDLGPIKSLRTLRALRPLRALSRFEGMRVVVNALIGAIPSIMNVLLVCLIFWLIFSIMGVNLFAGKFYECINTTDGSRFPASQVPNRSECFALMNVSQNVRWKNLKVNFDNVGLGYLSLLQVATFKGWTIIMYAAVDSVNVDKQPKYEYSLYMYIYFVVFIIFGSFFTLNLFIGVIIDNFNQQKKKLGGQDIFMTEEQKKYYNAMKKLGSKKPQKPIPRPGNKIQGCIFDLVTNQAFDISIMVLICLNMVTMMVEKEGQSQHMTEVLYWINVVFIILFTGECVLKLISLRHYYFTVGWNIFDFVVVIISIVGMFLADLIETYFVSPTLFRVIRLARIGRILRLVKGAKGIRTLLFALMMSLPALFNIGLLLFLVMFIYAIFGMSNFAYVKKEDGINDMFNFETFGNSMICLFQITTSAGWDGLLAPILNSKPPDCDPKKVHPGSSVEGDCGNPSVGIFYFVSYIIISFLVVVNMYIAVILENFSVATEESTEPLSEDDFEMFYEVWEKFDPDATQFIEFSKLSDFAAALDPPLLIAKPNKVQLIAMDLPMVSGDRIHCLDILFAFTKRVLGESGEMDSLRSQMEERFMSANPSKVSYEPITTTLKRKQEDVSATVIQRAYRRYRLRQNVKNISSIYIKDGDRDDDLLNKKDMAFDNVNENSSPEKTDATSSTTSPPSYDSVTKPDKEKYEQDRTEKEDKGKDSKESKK

TRPA1 = target: T4, TRPA1 (Homo sapiens, UniProt O75762); assay: Ion channel panel (IonWorks Barracuda): TRPA1; format: cell-based; details: 100% = no change, <100% = inhibition
T4 construct: host or cells: HEK293 or CHO
In short: as §1

5HT3a = target: T5, 5HT3a (Homo sapiens, UniProt P46098); assay: Ion channel panel (IonWorks Barracuda): 5HT3a; format: cell-based
T5 construct: host or cells: HEK293 or CHO
T5 sequence (P46098 whole entry, looked up): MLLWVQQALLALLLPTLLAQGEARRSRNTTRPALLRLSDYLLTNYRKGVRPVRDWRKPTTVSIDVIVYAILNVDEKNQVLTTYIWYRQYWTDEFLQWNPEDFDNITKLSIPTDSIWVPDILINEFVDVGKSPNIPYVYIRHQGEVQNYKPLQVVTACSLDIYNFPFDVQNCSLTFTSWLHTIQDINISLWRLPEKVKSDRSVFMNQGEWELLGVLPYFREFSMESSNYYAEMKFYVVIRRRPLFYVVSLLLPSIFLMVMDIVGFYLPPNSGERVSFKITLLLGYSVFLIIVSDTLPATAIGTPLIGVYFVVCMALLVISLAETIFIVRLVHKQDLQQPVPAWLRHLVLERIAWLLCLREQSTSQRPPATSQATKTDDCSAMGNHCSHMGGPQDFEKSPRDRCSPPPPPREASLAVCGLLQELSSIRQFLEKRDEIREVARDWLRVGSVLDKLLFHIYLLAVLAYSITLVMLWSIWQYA
In short: as §1

α3β4 = target: T6, α3β4 (Homo sapiens, UniProt P30926+P32297); assay: Ion channel panel (IonWorks Barracuda): α3β4; format: cell-based; details: 100% = no change, <100% = inhibition
T6 construct: host or cells: HEK293 or CHO
In short: as §1

NR2A = target: T7, NR2A (Homo sapiens, UniProt Q12879); assay: Ion channel panel (IonWorks Barracuda): NR2A; format: cell-based; details: 100% = no change, <100% = inhibition
T7 construct: host or cells: HEK293 or CHO
In short: as §1

Cav2.1 = target: T8, Cav2.1 (Homo sapiens, UniProt O00555); assay: cell-based; details: 100% = no change, <100% = inhibition
T8 construct: host or cells: HEK293 or CHO
In short: as §1

Kv2.1 = target: T9, Kv2.1 (Homo sapiens, UniProt Q14721); assay: cell-based; details: 100% = no change, <100% = inhibition
T9 construct: host or cells: HEK293 or CHO
In short: as §1

Cav2.2 = target: T10, Cav2.2 (Homo sapiens, UniProt Q00975); assay: cell-based; details: 100% = no change, <100% = inhibition
T10 construct: host or cells: HEK293 or CHO
In short: as §1

Nav1.5 = Nav1.5 (Homo sapiens, UniProt Q14524); assay: in vitro; details: 100% = no change; for Activity of Nav1.5 with peptide, expressed as a percentage of the reference compound: peptide at 0.2 μM; for Activity of Nav1.5 with peptide (percentage of the reference compound): peptide at 20 μM
Chain of Nav1.5 (Q14524 whole entry): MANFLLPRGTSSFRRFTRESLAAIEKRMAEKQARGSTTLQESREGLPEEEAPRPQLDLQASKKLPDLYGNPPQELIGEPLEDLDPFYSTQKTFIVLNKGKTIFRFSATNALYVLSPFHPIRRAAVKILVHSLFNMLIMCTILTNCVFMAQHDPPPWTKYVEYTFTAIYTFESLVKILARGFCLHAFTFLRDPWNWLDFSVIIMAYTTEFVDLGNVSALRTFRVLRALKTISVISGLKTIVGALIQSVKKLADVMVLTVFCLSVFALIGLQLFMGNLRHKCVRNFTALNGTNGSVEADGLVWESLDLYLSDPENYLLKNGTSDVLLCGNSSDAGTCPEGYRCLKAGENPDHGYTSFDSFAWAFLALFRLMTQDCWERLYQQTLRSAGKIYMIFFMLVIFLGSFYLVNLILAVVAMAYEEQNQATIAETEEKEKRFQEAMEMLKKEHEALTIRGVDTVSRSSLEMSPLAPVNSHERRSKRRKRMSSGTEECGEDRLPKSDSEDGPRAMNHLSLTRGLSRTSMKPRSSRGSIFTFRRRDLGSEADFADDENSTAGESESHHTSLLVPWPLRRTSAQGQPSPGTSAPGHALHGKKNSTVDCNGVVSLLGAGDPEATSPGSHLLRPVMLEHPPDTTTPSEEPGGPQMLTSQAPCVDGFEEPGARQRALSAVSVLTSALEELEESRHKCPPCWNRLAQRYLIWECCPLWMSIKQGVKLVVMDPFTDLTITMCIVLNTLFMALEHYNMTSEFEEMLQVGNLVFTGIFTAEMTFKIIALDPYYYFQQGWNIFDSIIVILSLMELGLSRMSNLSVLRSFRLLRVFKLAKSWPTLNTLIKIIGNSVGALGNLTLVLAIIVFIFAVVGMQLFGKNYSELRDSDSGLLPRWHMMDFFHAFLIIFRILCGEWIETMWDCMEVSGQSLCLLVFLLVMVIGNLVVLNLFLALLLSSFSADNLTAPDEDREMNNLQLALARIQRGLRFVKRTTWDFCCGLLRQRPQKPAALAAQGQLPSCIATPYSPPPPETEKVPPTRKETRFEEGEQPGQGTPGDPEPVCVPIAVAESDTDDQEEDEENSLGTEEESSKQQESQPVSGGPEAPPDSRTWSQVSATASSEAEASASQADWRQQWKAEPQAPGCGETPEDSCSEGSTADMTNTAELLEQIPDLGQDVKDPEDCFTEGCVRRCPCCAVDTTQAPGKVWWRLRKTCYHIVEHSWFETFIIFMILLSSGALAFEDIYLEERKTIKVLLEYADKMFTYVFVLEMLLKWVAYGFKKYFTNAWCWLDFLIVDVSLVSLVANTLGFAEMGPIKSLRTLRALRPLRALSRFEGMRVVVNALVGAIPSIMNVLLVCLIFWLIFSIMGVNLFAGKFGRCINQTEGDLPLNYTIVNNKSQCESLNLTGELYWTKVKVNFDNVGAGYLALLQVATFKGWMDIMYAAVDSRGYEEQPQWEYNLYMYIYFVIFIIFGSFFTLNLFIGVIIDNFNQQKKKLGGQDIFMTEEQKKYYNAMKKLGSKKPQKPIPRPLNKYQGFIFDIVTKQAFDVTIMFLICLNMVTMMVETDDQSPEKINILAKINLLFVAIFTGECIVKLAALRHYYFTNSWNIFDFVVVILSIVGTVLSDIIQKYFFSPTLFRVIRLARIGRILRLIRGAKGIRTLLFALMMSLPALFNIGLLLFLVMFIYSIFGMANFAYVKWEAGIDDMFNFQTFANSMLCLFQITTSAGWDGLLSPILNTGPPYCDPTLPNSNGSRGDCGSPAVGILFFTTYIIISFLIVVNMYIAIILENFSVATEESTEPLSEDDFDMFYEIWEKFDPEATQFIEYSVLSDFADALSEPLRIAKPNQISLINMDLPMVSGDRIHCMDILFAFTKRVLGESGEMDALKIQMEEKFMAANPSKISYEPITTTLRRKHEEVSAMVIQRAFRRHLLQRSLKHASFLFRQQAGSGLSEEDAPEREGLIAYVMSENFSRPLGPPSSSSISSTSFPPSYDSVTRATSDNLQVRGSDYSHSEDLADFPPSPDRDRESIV
In short: as §1

hERG = hERG (Homo sapiens, UniProt Q12809); assay: in vitro; details: 100% = no change, <100% = inhibition
In short: as §1

Kir2.1 = target: T11, Kir2.1 (Homo sapiens, UniProt P63252); assay: Ion channel panel (IonWorks Barracuda): Kir2.1; format: cell-based; details: 100% = no change, <100% = inhibition
T11 construct: host or cells: HEK293 or CHO
In short: as §1

TRPV1 = target: T12, TRPV1 (Homo sapiens, UniProt Q8NER1); assay: Ion channel panel (IonWorks Barracuda): TRPV1; format: cell-based; details: 100% = no change, <100% = inhibition
T12 construct: host or cells: HEK293 or CHO
In short: as §1

Kv1.1 = target: T13, Kv1.1 (Homo sapiens, UniProt Q09470); assay: cell-based; format: cell-based; details: 100% = no change, <100% = inhibition
T13 construct: host or cells: HEK293 or CHO
T13 sequence (Q09470 whole entry): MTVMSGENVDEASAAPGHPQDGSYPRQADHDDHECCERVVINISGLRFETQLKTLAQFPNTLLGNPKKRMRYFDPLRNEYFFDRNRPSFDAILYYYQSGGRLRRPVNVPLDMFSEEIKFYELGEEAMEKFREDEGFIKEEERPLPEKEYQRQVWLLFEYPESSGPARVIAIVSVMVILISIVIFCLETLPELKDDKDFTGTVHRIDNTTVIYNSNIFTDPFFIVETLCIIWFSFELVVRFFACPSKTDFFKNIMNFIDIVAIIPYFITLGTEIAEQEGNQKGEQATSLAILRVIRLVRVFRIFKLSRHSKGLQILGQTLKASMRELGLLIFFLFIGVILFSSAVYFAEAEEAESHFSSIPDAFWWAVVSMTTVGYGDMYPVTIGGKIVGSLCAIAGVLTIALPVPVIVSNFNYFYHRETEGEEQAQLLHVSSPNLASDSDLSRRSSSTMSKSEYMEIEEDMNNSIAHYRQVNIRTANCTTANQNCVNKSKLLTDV
In short: as §1

Kv1.3 = target: T14, Kv1.3 (Homo sapiens, UniProt P22001); assay: cell-based; format: cell-based; details: 100% = no change, <100% = inhibition
T14 construct: host or cells: HEK293 or CHO
T14 sequence (P22001 whole entry): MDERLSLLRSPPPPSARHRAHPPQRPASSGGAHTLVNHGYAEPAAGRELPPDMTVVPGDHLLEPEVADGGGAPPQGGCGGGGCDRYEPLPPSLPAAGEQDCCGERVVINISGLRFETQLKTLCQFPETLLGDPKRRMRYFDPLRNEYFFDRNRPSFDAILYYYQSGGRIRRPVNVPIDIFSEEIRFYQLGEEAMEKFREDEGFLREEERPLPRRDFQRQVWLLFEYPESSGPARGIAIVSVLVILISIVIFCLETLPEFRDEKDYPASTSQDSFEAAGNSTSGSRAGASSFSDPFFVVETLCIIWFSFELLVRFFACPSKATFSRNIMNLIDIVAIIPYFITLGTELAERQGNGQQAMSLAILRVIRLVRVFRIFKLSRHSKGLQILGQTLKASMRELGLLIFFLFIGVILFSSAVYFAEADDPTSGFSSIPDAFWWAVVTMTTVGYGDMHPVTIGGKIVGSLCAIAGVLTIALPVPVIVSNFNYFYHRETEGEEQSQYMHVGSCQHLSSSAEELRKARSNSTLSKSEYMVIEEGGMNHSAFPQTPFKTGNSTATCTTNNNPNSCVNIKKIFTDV
In short: as §1

Kv1.2 = target: T15, Kv1.2 (Homo sapiens, UniProt P16389); assay: cell-based; format: cell-based; details: 100% = no change, <100% = inhibition
T15 construct: host or cells: HEK293 or CHO
In short: as §1

[1] = first of two Nav1.7 columns (probably TP1)
[2] = second of two Nav1.7 columns (probably TP2)
[3] = first of two Nav1.5 columns (probably TP1)
[4] = second of two Nav1.5 columns (probably TP2)

For “6 (GSVRIPVSCKHSGQCLKPCKDAGMRFGKCMNGKCDCTPK) [compound 6]”, the “Activity of GABA with peptide, expressed as a percentage of the reference compound” value (GABA; peptide at 0.2 μM) was 104%, the “Activity of GABA with peptide (percentage of the reference compound)” value (GABA; peptide at 20 μM) was 96% and the “Activity of a4b2 with peptide, expressed as a percentage of the reference compound” value (α4β2; peptide at 0.2 μM) was 71%. The “Activity of a4b2 with peptide (percentage of the reference compound)” value (α4β2; peptide at 20 μM) was 96%, the “Activity of NR2B with peptide, expressed as a percentage of the reference compound” value (NR2B; peptide at 0.2 μM) was 92% and the “Activity of NR2B with peptide (percentage of the reference compound)” value (NR2B; peptide at 20 μM) was 75%. The “Activity of Nav1.7 with peptide, expressed as a percentage of the reference compound” value (Nav1.7; [1]) was 98%, the “Activity of Nav1.7 with peptide, expressed as a percentage of the reference compound” value (Nav1.7; [2]) was 95% and the “Activity of Nav1.7 with peptide (percentage of the reference compound)” value (Nav1.7; [1]) was 116%. For the same substance, the “Activity of Nav1.7 with peptide (percentage of the reference compound)” value (Nav1.7; [2]) was 119%, the “Activity of TRPA1 with peptide, expressed as a percentage of the reference compound” value (TRPA1; peptide at 0.2 μM) was 126% and the “Activity of TRPA1 with peptide (percentage of the reference compound)” value (TRPA1; peptide at 20 μM) was 92%. For the same substance, the “Activity of 5HT3a with peptide (percentage of the reference compound)” value (5HT3a) was 84%, the “Activity of 5HT3a with peptide, expressed as a percentage of the reference compound” value (5HT3a) was 85% and the “Activity of a3b4 with peptide, expressed as a percentage of the reference compound” value (α3β4; peptide at 0.2 μM) was 100%. The “Activity of a3b4 with peptide (percentage of the reference compound)” value (α3β4; peptide at 20 μM) was 95%, the “Activity of NR2A with peptide, expressed as a percentage of the reference compound” value (NR2A; peptide at 0.2 μM) was 86% and the “Activity of NR2A with peptide (percentage of the reference compound)” value (NR2A; peptide at 20 μM) was 88%. For the same substance, the “Activity of Cav2.1 with peptide, expressed as a percentage of the reference compound” value (Cav2.1; peptide at 0.2 μM) was 109%, the “Activity of Cav2.1 with peptide (percentage of the reference compound)” value (Cav2.1; peptide at 20 μM) was 111% and the “Activity of Kv2.1 with peptide, expressed as a percentage of the reference compound” value (Kv2.1; peptide at 0.2 μM) was 103%. For the same substance, the “Activity of Kv2.1 with peptide (percentage of the reference compound)” value (Kv2.1; peptide at 20 μM) was 124%, the “Activity of Cav2.2 with peptide, expressed as a percentage of the reference compound” value (Cav2.2; peptide at 0.2 μM) was 103% and the “Activity of Cav2.2 with peptide (percentage of the reference compound)” value (Cav2.2; peptide at 20 μM) was 107%. For the same substance, the “Activity of Nav1.5 with peptide, expressed as a percentage of the reference compound” value (Nav1.5; [3]) was 105%, the “Activity of Nav1.5 with peptide, expressed as a percentage of the reference compound” value (Nav1.5; [4]) was 104% and the “Activity of Nav1.5 with peptide (percentage of the reference compound)” value (Nav1.5; [3]) was 116%. The “Activity of Nav1.5 with peptide (percentage of the reference compound)” value (Nav1.5; [4]) was 120%, the “Activity of hERG with peptide, expressed as a percentage of the reference compound” value (hERG; peptide at 0.2 μM) was 107% and the “Activity of hERG with peptide (percentage of the reference compound)” value (hERG; peptide at 20 μM) was 71%. For the same substance, the “Activity of Kir2.1 with peptide, expressed as a percentage of the reference compound” value (Kir2.1; peptide at 0.2 μM) was 96%, the “Activity of Kir2.1 with peptide (percentage of the reference compound)” value (Kir2.1; peptide at 20 μM) was 94% and the “Activity of TRPV1 with peptide, expressed as a percentage of the reference compound” value (TRPV1; peptide at 0.2 μM) was 86%. The “Activity of TRPV1 with peptide (percentage of the reference compound)” value (TRPV1; peptide at 20 μM) was 98%, the “Activity of Kv1.1 with peptide, expressed as a percentage of the reference compound” value (Kv1.1; peptide at 0.2 μM) was 96% and the “Activity of Kv1.1 with peptide (percentage of the reference compound)” value (Kv1.1; peptide at 20 μM) was 30%. The “Activity of Kv1.3 with peptide, expressed as a percentage of the reference compound” value (Kv1.3; peptide at 0.2 μM) was 25%, the “Activity of Kv1.3 with peptide (percentage of the reference compound)” value (Kv1.3; peptide at 20 μM) was 0% and the “Activity of Kv1.2 with peptide, expressed as a percentage of the reference compound” value (Kv1.2; peptide at 0.2 μM) was 81%. The “Activity of Kv1.2 with peptide (percentage of the reference compound)” value (Kv1.2; peptide at 20 μM) was 85%.
